According to patent US20240010742A1 (RESEARCH DEVELOPMENT FOUNDATION, published 2024):

T1: FcγRIIb on cells (Raji cells; THP-1 cells) (human, UniProt P31994 43-310)
T1 construct: whole, on cells; also called FcγR2b; FcgR2b
T1 sequence (looked up): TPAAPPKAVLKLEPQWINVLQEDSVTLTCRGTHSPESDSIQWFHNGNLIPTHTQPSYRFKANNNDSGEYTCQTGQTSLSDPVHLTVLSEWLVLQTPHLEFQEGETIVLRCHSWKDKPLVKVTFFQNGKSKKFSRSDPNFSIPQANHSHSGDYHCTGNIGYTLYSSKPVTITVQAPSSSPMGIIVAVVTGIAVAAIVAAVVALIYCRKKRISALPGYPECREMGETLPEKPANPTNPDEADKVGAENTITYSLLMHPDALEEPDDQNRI

T2: FcγRIIb (human, UniProt P31994 46-217, limits assumed, biotinylated (BLI, beads))
T2 construct: Recombinant receptor on biosensors, SPR or beads; also called FcgRIIb; 2b
T2 sequence (looked up): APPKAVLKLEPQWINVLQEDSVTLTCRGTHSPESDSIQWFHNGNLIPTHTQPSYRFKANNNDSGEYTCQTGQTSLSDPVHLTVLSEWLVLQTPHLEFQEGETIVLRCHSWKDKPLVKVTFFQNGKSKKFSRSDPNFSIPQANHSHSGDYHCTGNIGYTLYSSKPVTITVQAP

T3: FcγRIIaH131 (human, UniProt P12318 36-218, limits assumed, biotinylated (BLI, beads))
T3 construct: also called FcgRIIaH131
T3 sequence (looked up): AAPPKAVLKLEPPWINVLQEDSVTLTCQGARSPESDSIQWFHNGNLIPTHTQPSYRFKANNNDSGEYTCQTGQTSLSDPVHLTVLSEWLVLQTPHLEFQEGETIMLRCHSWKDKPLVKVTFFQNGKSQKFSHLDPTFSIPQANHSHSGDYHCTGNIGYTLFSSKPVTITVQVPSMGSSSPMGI

T4: FcγRIIaR131 (human, UniProt P12318 36-218, limits assumed, biotinylated (BLI, beads))
T4 construct: also called FcgRIIaR131; 2aR
T4 sequence (looked up): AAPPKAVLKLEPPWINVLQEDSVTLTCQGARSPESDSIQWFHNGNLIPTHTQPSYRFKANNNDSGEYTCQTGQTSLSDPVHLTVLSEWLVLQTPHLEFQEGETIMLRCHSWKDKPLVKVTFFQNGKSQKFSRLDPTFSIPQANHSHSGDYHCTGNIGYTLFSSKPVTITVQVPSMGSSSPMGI


Assays:
[1] = target: T1, FcγRIIb on cells (Raji cells; THP-1 …); experiment: flow cytometry: hexameric Fc on Raji cells (only FcγR2b among Fc receptors), 40 to 0.039 ug/ml; upper panel fluorescence intensity (axis without title), lower panel percent positive; last bar of each group = Ramos cells at 40 ug/ml
Experimental: Error bars are standard error of the mean of triplicate samples. Statistical analysis was performed by one way ANOVA with Tukey s multiple comparisons test (***P 0.001, ****P 0.0001). […] The cell binding of hexameric Fc was tested with Raji cell which expresses only FcγR2b among Fc receptors (FIG. 13).

FcγRI = target: T5, FcγRI (human, UniProt P12314 16-288, limits assumed, biotinylated (BLI, beads)); experiment: flow cytometry: hexameric Fc on FcγR-coated beads; y axis = mean fluorescence intensity
T5 construct: Recombinant receptor; also called FcgRI
T5 sequence (P12314 16-288 limits assumed): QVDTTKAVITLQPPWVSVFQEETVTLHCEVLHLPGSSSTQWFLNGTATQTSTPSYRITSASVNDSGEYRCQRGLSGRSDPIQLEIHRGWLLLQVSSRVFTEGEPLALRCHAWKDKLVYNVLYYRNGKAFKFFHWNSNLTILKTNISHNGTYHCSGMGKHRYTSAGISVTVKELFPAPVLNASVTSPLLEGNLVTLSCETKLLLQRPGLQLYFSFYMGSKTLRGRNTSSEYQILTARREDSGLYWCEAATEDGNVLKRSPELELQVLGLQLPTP

FcγRIIb = target: T2, FcγRIIb; experiment: as above
FcgRIIIbNA2 [2] = target: T6, FcgRIIIbNA2 (human, UniProt O75015 17-200, limits assumed); experiment: flow cytometry: hexameric Fc on FcγR-coated beads; mean fluorescence intensity
T6 construct: also called FcγRIIIb
T6 sequence (O75015 17-200 limits assumed): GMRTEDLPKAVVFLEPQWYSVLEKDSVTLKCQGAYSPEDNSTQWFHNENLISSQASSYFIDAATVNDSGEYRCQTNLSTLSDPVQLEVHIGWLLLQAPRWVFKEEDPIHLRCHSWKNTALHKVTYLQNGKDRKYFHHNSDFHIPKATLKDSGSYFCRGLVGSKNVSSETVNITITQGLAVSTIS

FcγRIIIaV158 [3] = target: T7, FcγRIIIaV158 (human, UniProt P08637 17-208, biotinylated (BLI, beads)); experiment: as above
T7 construct: also called FcgRIIIaV158; 3aV
T7 sequence (P08637 17-208 F176V limits assumed): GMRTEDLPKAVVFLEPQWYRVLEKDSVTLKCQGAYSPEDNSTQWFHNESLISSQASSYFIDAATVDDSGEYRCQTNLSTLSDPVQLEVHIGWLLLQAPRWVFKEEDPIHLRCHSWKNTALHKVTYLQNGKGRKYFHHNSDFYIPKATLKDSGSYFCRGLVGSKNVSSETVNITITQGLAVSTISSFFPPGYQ

FcγRIIaH131 [4] = target: T3, FcγRIIaH131; experiment: as above
FcγRIIaR131 [5] = target: T4, FcγRIIaR131; experiment: as above
FcγRIIaR131 [6] = target: T4, FcγRIIaR131; experiment: flow cytometry: hexameric Fc on FcγR-coated beads; y axis = mean fluorescence intensity
FcgRIIIbNA2 [7] = target: T6, FcgRIIIbNA2; experiment: flow cytometry: hexameric Fc ('Hex 2b18KQS-1') on FcγR-coated beads; mean fluorescence intensity
FcγRIIIaV158 [8] = target: T7, FcγRIIIaV158; experiment: as above
FcγRIIaH131 [9] = target: T3, FcγRIIaH131; experiment: as above

binding result [1] | binding result (FcγRI) | binding result (FcγRIIb) | binding result (FcgRIIIbNA2 [2]) | binding result (FcγRIIIaV158 [3]) | binding result (FcγRIIaH131 [4]) | binding result (FcγRIIaR131 [5]) | binding result (FcγRIIaR131 [6]) | binding result (FcgRIIIbNA2 [7]) | binding result (FcγRIIIaV158 [8]) | binding result (FcγRIIaH131 [9]) | Binder
binds | binds | binds | no binding | no binding | no binding | no binding |  |  |  |  | Hex 2b18KQS-ST (glycosylated version of Hex 2b18KQS) (Fc fusion, Ser298/Thr299 restored (glycosylated); forms a hexamer of Fc; also called glycosylated Hex 2b18KQS-ST Fc; hexameric 2b18KQS-ST Fc) EPKSCDKTHTCPPCPAPVDFRDPLVFLFPPKPKDTLMISRTPEVTCVVVDVSPEDPEVKFNWYVDGVEVHNAKTKPQEEQYNSTYRVVSVLTVCHQDWLNGKEYKCKVSNKLAPHPIIKTISKAKGQPREPQVYTLPPSRDELTKNQVSLTCLVKGFYPSDIAVEWESNGQPENNYKTTPPVLDSDGSFFLYSKLTVDKSRWQQGNVFSCSVMHEALHNHYTQKSLSLSPGKPTLYNVSLVMSDTAGTCY
 | binds | binds | no binding | no binding | no binding |  | binds |  |  |  | Hex 2b18K-ST (Fc fusion, also called Hex2b218K-ST; glycosylated hexameric construct of Fc variant 2b18K) Fc-tailpiece fusion chain: EPKSCDKTHTCPPCPAPVDFRDPLVFLFPPKPKDTLMISRTPEVTCVVVDVDPEDPEVKFNWYVDGVEVHNAKTKPREEQYNSTYRVVSVLTVCHQDWLNGKEYKCKVSNKLAPHPIIKTISKAKGQPREPQVYTLPPSRDELTKNQVSLTCLVKGFYPSDIAVEWESNGQPENNYKTTPPVLDSDGSFFLYSKLTVDKSRWQQGNVFSCSVMHEALHNHYTQKSLSLSPGKPTLYNVSLVMSDTAGNCY
binds |  | binds |  |  |  |  | binds | no binding | no binding | no binding | Hex 2b18KQS (aglycosylated hexameric Fc) (Fc fusion, forms a hexamer of Fc; also called Hex 2b18KQS Fc; Hex-2bKQS) EPKSCDKTHTCPPCPAPVDFRDPLVFLFPPKPKDTLMISRTPEVTCVVVDVSPEDPEVKFNWYVDGVEVHNAKTKPQEEQYNGAYRVVSVLTVCHQDWLNGKEYKCKVSNKLAPHPIIKTISKAKGQPREPQVYTLPPSRDELTKNQVSLTCLVKGFYPSDIAVEWESNGQPENNYKTTPPVLDSDGSFFLYSKLTVDKSRWQQGNVFSCSVMHEALHNHYTQKSLSLSPGKPTLYNVSLVMSDTAGTCY
